Test results as given in article PMC2813981.

Assays:
[1] = molecular target: fibrinogen fragment D (human); experiment: SPR
[2] = molecular target: fibrin matrix (thrombin- and factor XIIIa-treated human fibrinogen) (human) (UniProt P02671); experiment: confocal microscopy of perfused fibrin matrices
Sequence of UniProt P02671 (P02671 36-866, chain 1 of 3): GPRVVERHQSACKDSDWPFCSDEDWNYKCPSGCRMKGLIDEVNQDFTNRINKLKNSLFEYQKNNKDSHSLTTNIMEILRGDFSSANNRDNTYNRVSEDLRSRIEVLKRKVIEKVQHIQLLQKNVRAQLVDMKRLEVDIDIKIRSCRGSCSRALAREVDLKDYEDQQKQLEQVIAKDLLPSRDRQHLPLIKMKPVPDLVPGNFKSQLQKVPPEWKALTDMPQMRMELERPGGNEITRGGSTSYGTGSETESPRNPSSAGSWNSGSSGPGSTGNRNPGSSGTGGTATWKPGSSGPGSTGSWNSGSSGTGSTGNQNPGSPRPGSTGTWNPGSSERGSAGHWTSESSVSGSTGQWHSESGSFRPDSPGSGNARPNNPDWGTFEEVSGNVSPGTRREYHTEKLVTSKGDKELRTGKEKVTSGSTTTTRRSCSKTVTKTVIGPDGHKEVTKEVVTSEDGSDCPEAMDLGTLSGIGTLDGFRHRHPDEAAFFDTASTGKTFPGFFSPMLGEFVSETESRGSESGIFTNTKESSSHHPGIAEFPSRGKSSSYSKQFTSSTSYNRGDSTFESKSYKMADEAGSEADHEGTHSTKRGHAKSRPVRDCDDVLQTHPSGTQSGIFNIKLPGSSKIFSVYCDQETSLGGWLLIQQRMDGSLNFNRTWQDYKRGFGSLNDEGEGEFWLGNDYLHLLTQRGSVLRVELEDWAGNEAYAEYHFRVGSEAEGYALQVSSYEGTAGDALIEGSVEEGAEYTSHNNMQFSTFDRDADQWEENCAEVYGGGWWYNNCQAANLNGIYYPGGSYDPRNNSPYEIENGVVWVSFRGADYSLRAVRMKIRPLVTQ
Sequence of UniProt P02671 (P02675 45-491, chain 2 of 3, further chain): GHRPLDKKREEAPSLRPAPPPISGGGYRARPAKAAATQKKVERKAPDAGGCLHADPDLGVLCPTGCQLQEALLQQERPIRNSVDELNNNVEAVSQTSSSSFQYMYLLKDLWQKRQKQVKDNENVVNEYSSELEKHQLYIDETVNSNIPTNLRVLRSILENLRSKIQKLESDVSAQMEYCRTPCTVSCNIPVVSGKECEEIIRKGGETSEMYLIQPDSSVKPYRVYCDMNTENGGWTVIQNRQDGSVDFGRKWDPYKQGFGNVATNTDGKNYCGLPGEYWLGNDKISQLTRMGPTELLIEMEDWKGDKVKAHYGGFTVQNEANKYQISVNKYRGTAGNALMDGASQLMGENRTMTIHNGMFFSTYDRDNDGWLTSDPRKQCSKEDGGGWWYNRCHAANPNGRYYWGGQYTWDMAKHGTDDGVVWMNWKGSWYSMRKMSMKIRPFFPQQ
Sequence of UniProt P02671 (P02679 27-453, chain 3 of 3, further chain): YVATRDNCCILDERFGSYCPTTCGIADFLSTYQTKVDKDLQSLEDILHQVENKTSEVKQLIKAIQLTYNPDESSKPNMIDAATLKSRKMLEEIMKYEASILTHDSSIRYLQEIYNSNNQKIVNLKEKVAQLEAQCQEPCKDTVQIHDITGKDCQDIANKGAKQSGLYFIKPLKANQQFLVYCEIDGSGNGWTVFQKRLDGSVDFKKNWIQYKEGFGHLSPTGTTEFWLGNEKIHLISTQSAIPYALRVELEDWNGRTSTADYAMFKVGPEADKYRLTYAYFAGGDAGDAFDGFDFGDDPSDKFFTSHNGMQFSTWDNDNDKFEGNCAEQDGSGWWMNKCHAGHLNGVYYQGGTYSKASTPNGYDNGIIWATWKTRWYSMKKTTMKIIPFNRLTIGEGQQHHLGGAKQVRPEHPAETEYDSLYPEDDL

| Substance | KD with a 10-molar excess of soluble GPRP peptide [1] | Kd [1] | percent of fibrin matrix still retaining the conjugate after perfusion [2] |
| --- | --- | --- | --- |
| GPRP-FnIII9-10 (designed binder) | 43 µM | 3 µM | – |
| GPRP-FnIII9-10-AF633 (designed binder) | – | – | 12.8% |
| GPRV-FnIII9-10 (designed binder) | – | 125 µM | – |
